No end group written: not given here.
T1: His-tagged P3028 (human, also: His-tag, terminus and sequence not given here)
T1 construct: in solution at 0.5 ug/mL over the peptide cards; found with anti-His-tag antibody and rabbit anti-mouse peroxidase (rampo); also called PGE73; not shown: His-tag
T1 peptide: VFDEFKPLVEEPQNLIK


Biological target: T1, His-tagged P3028
Test: PEPSCAN chip ELISA, His-P3028 in solution;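 note: score is the raw OD at 405 nm from peroxidase colour with ABTS, imaged by CCD camera before and after staining, with wells showing air bubbles set to zero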
Description: After washing, the peroxidase substrate 2,2′-azine-di-3-ethylbenzthiazoline sulfonate (ABTS) and 2 μL of 3% H2O2 were added. The binding capacity of the mAb was measured as a color development at 405 nm (optical density, OD405). The color development was quantified with a charge-coupled device (CCD)—camera and an image processing system.
The OD405-values obtained by a CCD-camera was considered as raw data values (“rampo values,” “rampo units,” or “rampo scores”). […] First the CCD-camera made a picture of the card before peroxidase coloring and then again a picture after the peroxidase coloring. […] These values were copied into an excel file and labeled as a raw data file. One follow-up manipulation was allowed. Sometimes a well can contain an air-bubble resulting in a false-positive value. If manual inspection of the cards detect an air-bubble the value are set to 0 for that well.

Going from RKLDTFFVKLSLFTER [SEQ ID NO 3] to TKLDTFFVKLSLFTER [SEQ ID NO 280], the “RAMPO Score” value falls from 523 rampo score to 493 rampo score.

Compared with KKLDTFFVKLGLFTER [SEQ ID NO 99], KKLDTFFVKLSLSTER [SEQ ID NO 27] is higher in “RAMPO Score” value: 288 rampo score for the first, 635 rampo score for the second.

First: KKLDTFFVKLMLFTER [SEQ ID NO 16]
Second: QKLDTFFVKLSLFTER [SEQ ID NO 278]
The “RAMPO Score” value of the first is higher: 744 rampo score for the first, 455 rampo score for the second.

Going from KKGDTFFVKLSLFTER [SEQ ID NO 94] to LKLDTFFVKLSLFTER [SEQ ID NO 274], the “RAMPO Score” value falls from 563 rampo score to 449 rampo score.

Compared with KKLDTFVVKLSLFTER [SEQ ID NO 11], KKLDTFFVKLSMFTER [SEQ ID NO 21] is lower in “RAMPO Score” value: 527 rampo score for the first, 499 rampo score for the second.

Going from KKLDTFFVKLSLGTER [SEQ ID NO 100] to KKLDTFFVKLHLFTER [SEQ ID NO 18], the “RAMPO Score” value rises from 531 rampo score to 535 rampo score.

Compared with GKLDTFFVKLSLFTER [SEQ ID NO 93], DKLDTFFVKLSLFTER [SEQ ID NO 269] is higher in “RAMPO Score” value: 367 rampo score for the first, 373 rampo score for the second.

Going from KKLDTFFVKLSLGTER [SEQ ID NO 28] to KKLDTFLVKLSLFTER [SEQ ID NO 13], the “RAMPO Score” value falls from 531 rampo score to 517 rampo score.

Compared with KKLDTFSVKLSLFTER [SEQ ID NO 10], IKLDTFFVKLSLFTER [SEQ ID NO 273] is lower in “RAMPO Score” value: 700 rampo score for the first, 483 rampo score for the second.

First: KKLDTFFVKLSLRTER [SEQ ID NO 30]
Second: KKLDTFFVKLSLQTER [SEQ ID NO 23]
The “RAMPO Score” value of the first is lower: 502 rampo score for the first, 1140 rampo score for the second.

Going from KKEDTFFVKLSLFTER [SEQ ID NO 5] to EKLDTFFVKLSLFTER [SEQ ID NO 270], the “RAMPO Score” value falls from 528 rampo score to 396 rampo score.

Going from KKLDTFFVKLQLFTER [SEQ ID NO 15] to KKLDTVFVKLSLFTER [SEQ ID NO 8], the “RAMPO Score” value falls from 768 rampo score to 547 rampo score.

First: KKLDQFFVKLSLFTER [SEQ ID NO 6]
Second: KKLDTFFVKLSQFTER [SEQ ID NO 19]
The “RAMPO Score” value of the first is lower: 535 rampo score for the first, 651 rampo score for the second.

First: KKLDGFFVKLSLFTER [SEQ ID NO 95]
Second: KKLDTFFVKLSLATER [SEQ ID NO 29]
The “RAMPO Score” value of the first is lower: 386 rampo score for the first, 525 rampo score for the second.

First: KKLDTFGVKLSLFTER [SEQ ID NO 96]
Second: KKLDTFMVKLSLFTER [SEQ ID NO 9]
The “RAMPO Score” value of the first is lower: 347 rampo score for the first, 712 rampo score for the second.

Compared with RKLDTFFVKLSLFTER [SEQ ID NO 279], HKLDTFFVKLSLFTER [SEQ ID NO 272] is lower in “RAMPO Score” value: 523 rampo score for the first, 428 rampo score for the second.

Compared with KKLDTAFVKLSLFTER [SEQ ID NO 7], KKGDTFFVKLSLFTER [SEQ ID NO 4] is lower in “RAMPO Score” value: 575 rampo score for the first, 563 rampo score for the second.

Going from KKLDTFFVKLSLNTER [SEQ ID NO 25] to MKLDTFFVKLSLFTER [SEQ ID NO 275], the “RAMPO Score” value falls from 862 rampo score to 457 rampo score.

Compared with KKLDTFFKKLSLFTER (also called P27; SCF 27) [SEQ ID NO 264], KKLDTFFVKLTLFTER [SEQ ID NO 17] is higher in “RAMPO Score” value: 253 rampo score for the first, 520 rampo score for the second.

First: VKLDTFFVKLSLFTER [SEQ ID NO 281]
Second: NKLDTFFVKLSLFTER [SEQ ID NO 276]
The “RAMPO Score” value of the first is lower: 442 rampo score for the first, 445 rampo score for the second.

First: AKLDTFFVKLSLFTER [SEQ ID NO 268]
Second: KKLDTFFVKLSLMTER [SEQ ID NO 22]
The “RAMPO Score” value of the first is lower: 466 rampo score for the first, 1190 rampo score for the second.

First: PKLDTFFVKLSLFTER [SEQ ID NO 277]
Second: KKLDTFTVKLSLFTER [SEQ ID NO 12]
The “RAMPO Score” value of the first is lower: 387 rampo score for the first, 517 rampo score for the second.

Compared with KKLDTFFVKLSLPTER [SEQ ID NO 26], KKLDTFFVKLSLFRER [SEQ ID NO 33] is lower in “RAMPO Score” value: 696 rampo score for the first, 264 rampo score for the second.

Compared with KKLDTFFVKLSLHTER [SEQ ID NO 24], KKLDTFFVKVSLFTER [SEQ ID NO 14] is lower in “RAMPO Score” value: 1050 rampo score for the first, 658 rampo score for the second.

Going from GKLDTFFVKLSLFTER [SEQ ID NO 271] to KKLDTFFVKLSVFTER [SEQ ID NO 20], the “RAMPO Score” value rises from 367 rampo score to 545 rampo score.

First: KKLDTFFVKLSLFNER [SEQ ID NO 31]
Second: KKLDTFFVKLSLFPER [SEQ ID NO 32]
The “RAMPO Score” value of the first is higher: 599 rampo score for the first, 551 rampo score for the second.
